Experimental data as given in the supplement of paper PMC5998384.

Experiments:
[1] = tested on: HeLa Kyoto; assay: solubility in G1/S (NP-40 vs SDS abundance) (log2 ratio); higher = more soluble; conditions: cell cycle stage: G1/S
[2] = tested on: HeLa Kyoto; assay: solubility change mitosis vs G1/S (difference of NP-40 vs SDS log2 ratios) (log2 ratio difference); higher = more soluble in mitosis
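For solubility change mitosis vs G1/S (difference of NP-40 vs SDS log2 ratios) in this document: synchronized HeLa Kyoto cells (double thymidine block for G1/S, nocodazole release for mitosis), protein amounts in NP-40 versus SDS lysates quantified by mass spectrometry, three biological replicates.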
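For solubility in G1/S (NP-40 vs SDS abundance) in this document: HeLa Kyoto cells arrested at G1/S by double thymidine block, proteins quantified by TMT10plex mass spectrometry in mild NP-40 versus SDS extracts, three biological replicates.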

MAP4K5, sequence (chain, as listed by the source): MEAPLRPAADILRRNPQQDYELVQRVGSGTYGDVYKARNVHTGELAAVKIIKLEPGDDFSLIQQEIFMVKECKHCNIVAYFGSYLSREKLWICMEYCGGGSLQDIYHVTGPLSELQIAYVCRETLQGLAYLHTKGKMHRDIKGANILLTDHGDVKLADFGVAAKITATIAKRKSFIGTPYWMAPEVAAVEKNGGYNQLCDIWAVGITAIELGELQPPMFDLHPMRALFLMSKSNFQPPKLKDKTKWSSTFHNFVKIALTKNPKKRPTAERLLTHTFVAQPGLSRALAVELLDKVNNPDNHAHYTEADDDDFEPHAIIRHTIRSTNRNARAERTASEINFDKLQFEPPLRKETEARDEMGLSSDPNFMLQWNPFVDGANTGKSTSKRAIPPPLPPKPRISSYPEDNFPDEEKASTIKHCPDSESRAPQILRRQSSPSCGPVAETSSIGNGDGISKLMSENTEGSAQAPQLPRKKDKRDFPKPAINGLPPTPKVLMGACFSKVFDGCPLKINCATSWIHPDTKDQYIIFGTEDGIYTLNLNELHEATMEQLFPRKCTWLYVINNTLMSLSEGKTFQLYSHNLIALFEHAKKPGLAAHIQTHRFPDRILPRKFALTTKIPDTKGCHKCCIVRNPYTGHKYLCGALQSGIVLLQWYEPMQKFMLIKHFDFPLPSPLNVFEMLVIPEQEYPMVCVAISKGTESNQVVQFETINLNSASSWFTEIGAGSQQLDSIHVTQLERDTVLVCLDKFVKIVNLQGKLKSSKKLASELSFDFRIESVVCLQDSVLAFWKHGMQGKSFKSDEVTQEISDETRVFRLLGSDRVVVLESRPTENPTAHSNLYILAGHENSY

MKEMVGGCCVCSDERGWAENPLVYCDGHACSVAVHQACYGIVQVPTGPWFCRKCESQERAARVRCELCPHKDGALKRTDNGGWAHVVCALYIPEVQFANVLTMEPIVLQYVPHDRFNKTCYICEEQGRESKAASGACMTCNRHGCRQAFHVTCAQMAGLLCEEEVLEVDNVKYCGYCKYHFSKMKTSRHSSGGGGGGAGGGGGSMGGGGSGFISGRRSRSASPSTQQEKHPTHHERGQKKSRKDKERLKQKHKKRPESPPSILTPPVVPTADKVSSSASSSSHHEASTQETSESSRESKGKKSSSHSLSHKGKKLSSGKGVSSFTSASSSSSSSSSSSGGPFQPAVSSLQSSPDFSAFPKLEQPEEDKYSKPTAPAPSAPPSPSAPEPPKADLFEQKVVFSGFGPIMRFSTTTSSSGRARAPSPGDYKSPHVTGSGASAGTHKRMPALSATPVPADETPETGLKEKKHKASKRSRHGPGRPKGSRNKEGTGGPAAPSLPSAQLAGFTATAASPFSGGSLVSSGLGGLSSRTFGPSGSLPSLSLESPLLGAGIYTSNKDPISHSGGMLRAVCSTPLSSSLLGPPGTSALPRLSRSPFTSTLPSSSASISTTQVFSLAGSTFSLPSTHIFGTPMGAVNPLLSQAESSHTEPDLEDCSFRCRGTSPQESLSSMSPISSLPALFDQTASAPCGGGQLDPAAPGTTNMEQLLEKQGDGEAGVNIVEMLKALHALQKENQRLQEQILSLTAKKERLQILNVQLSVPFPALPAALPAANGPVPGPYGLPPQAGSSDSLSTSKSPPGKSSLGLDNSLSTSSEDPHSGCPSRSSSSLSFHSTPPPLPLLQQSPATLPLALPGAPAPLPPQPQNGLGRAPGAAGLGAMPMAEGLLGGLAGSGGLPLNGLLGGLNGAAAPNPASLSQAGGAPTLQLPGCLNSLTEQQRHLLQQQEQQLQQLQQLLASPQLTPEHQTVVYQMIQQIQQKRELQRLQMAGGSQLPMASLLAGSSTPLLSAGTPGLLPTASAPPLLPAGALVAPSLGNNTSLMAAAAAAAAVAAAGGPPVLTAQTNPFLSLSGAEGSGGGPKGGTADKGASANQEKG [MLLT6]
solubility in G1/S (log2) [1]: -1.14
solubility change mitosis (log2) [2]: 0.828

MRTEAEAAGPPLEPGDFVQLPVPVIQQLYHWDCGLACSRMVLRYLGQLDDSEFERALQKLQLTRSIWTIDLAYLMHHFGVRHRFCTQTLGVDKGYKNQSFYRKHFDTEETRVNQLFAQAKACKVLVEKCTVSVKDIQAHLAQGHVAIVLVNSGVLHCDLCSSPVKYCCFTPSGHHCFCRTPDYQGHFIVLRGYNRATGCIFYNNPAYADPGMCSTSISNFEEARTSYGTDEDILFVYLDS [GUCD1]
solubility in G1/S (log2) [1]: -0.455
solubility change mitosis (log2) [2]: -0.00182

MIKCLSVEVQAKLRSGLAISSLGQCVEELALNSIDAEAKCVAVRVNMETFQVQVIDNGFGMGSDDVEKVGNRYFTSKCHSVQDLENPRFYGFRGEALANIADMASAVEISSKKNRTMKTFVKLFQSGKALKACEADVTRASAGTTVTVYNLFYQLPVRRKCMDPRLEFEKVRQRIEALSLMHPSISFSLRNDVSGSMVLQLPKTKDVCSRFCQIYGLGKSQKLREISFKYKEFELSGYISSEAHYNKNMQFLFVNKRLVLRTKLHKLIDFLLRKESIICKPKNGPTSRQMNSSLRHRSTPELYGIYVINVQCQFCEYDVCMEPAKTLIEFQNWDTLLFCIQEGVKMFLKQEKLFVELSGEDIKEFSEDNGFSLFDATLQKRVTSDERSNFQEACNNILDSYEMFNLQSKAVKRKTTAENVNTQSSRDSEATRKNTNDAFLYIYESGGPGHSKMTEPSLQNKDSSCSESKMLEQETIVASEAGENEKHKKSFLEHSSLENPCGTSLEMFLSPFQTPCHFEESGQDLEIWKESTTVNGMAANILKNNRIQNQPKRFKDATEVGCQPLPFATTLWGVHSAQTEKEKKKESSNCGRRNVFSYGRVKLCSTGFITHVVQNEKTKSTETEHSFKNYVRPGPTRAQETFGNRTRHSVETPDIKDLASTLSKESGQLPNKKNCRTNISYGLENEPTATYTMFSAFQEGSKKSQTDCILSDTSPSFPWYRHVSNDSRKTDKLIGFSKPIVRKKLSLSSQLGSLEKFKRQYGKVENPLDTEVEESNGVTTNLSLQVEPDILLKDKNRLENSDVCKITTMEHSDSDSSCQPASHILNSEKFPFSKDEDCLEQQMPSLRESPMTLKELSLFNRKPLDLEKSSESLASKLSRLKGSERETQTMGMMSRFNELPNSDSSRKDSKLCSVLTQDFCMLFNNKHEKTENGVIPTSDSATQDNSFNKNSKTHSNSNTTENCVISETPLVLPYNNSKVTGKDSDVLIRASEQQIGSLDSPSGMLMNPVEDATGDQNGICFQSEESKARACSETEESNTCCSDWQRHFDVALGRMVYVNKMTGLSTFIAPTEDIQAACTKDLTTVAVDVVLENGSQYRCQPFRSDLVLPFLPRARAERTVMRQDNRDTVDDTVSSESLQSLFSEWDNPVFARYPEVAVDVSSGQAESLAVKIHNILYPYRFTKGMIHSMQVLQQVDNKFIACLMSTKTEENGEAGGNLLVLVDQHAAHERIRLEQLIIDSYEKQQAQGSGRKKLLSSTLIPPLEITVTEEQRRLLWCYHKNLEDLGLEFVFPDTSDSLVLVGKVPLCFVEREANELRRGRSTVTKSIVEEFIREQLELLQTTGGIQGTLPLTVQKVLASQACHGAIKFNDGLSLQESCRLIEALSSCQLPFQCAHGRPSMLPLADIDHLEQEKQIKPNLTKLRKMAQAWRLFGKAECDTRQSLQQSMPPCEPP [MLH3]
solubility in G1/S (log2) [1]: -0.402
solubility change mitosis (log2) [2]: 0.153

MEEKYGGDVLAGPGGGGGLGPVDVPSARLTKYIVLLCFTKFLKAVGLFESYDLLKAVHIVQFIFILKLGTAFFMVLFQKPFSSGKTITKHQWIKIFKHAVAGCIISLLWFFGLTLCGPLRTLLLFEHSDIVVISLLSVLFTSSGGGPAKTRGAAFFIIAVICLLLFDNDDLMAKMAEHPEGHHDSALTHMLYTAIAFLGVADHKGGVLLLVLALCCKVGFHTASRKLSVDVGGAKRLQALSHLVSVLLLCPWVIVLSVTTESKVESWFSLIMPFATVIFFVMILDFYVDSICSVKMEVSKCARYGSFPIFISALLFGNFWTHPITDQLRAMNKAAHQESTEHVLSGGVVVSAIFFILSANILSSPSKRGQKGTLIGYSPEGTPLYNFMGDAFQHSSQSIPRFIKESLKQILEESDSRQIFYFLCLNLLFTFVELFYGVLTNSLGLISDGFHMLFDCSALVMGLFAALMSRWKATRIFSYGYGRIEILSGFINGLFLIVIAFFVFMESVARLIDPPELDTHMLTPVSVGGLIVNLIGICAFSHAHSHAHGASQGSCHSSDHSHSHHMHGHSDHGHGHSHGSAGGGMNANMRGVFLHVLADTLGSIGVIVSTVLIEQFGWFIADPLCSLFIAILIFLSVVPLIKDACQVLLLRLPPEYEKELHIALEKIQKIEGLISYRDPHFWRHSASIVAGTIHIQVTSDVLEQRIVQQVTGILKDAGVNNLTIQVEKEAYFQHMSGLSTGFHDVLAMTKQMESMKYCKDGTYIM [SLC30A5]
solubility in G1/S (log2) [1]: -0.143
solubility change mitosis (log2) [2]: -0.241

MAANSSGQGFQNKNRVAILAELDKEKRKLLMQNQSSTNHPGASIALSRPSLNKDFRDHAEQQHIAAQQKAALQHAHAHSSGYFITQDSAFGNLILPVLPRLDPE [INIP]
solubility in G1/S (log2) [1]: -0.135
solubility change mitosis (log2) [2]: 0.407

MVKLFIGNLPREATEQEIRSLFEQYGKVLECDIIKNYGFVHIEDKTAAEDAIRNLHHYKLHGVNINVEASKNKSKASTKLHVGNISPTCTNQELRAKFEEYGPVIECDIVKDYAFVHMERAEDAVEAIRGLDNTEFQGKRMHVQLSTSRLRTAPGMGDQSGCYRCGKEGHWSKECPVDRTGRVADFTEQYNEQYGAVRTPYTMGYGESMYYNDAYGALDYYKRYRVRSYEAVAAAAAASAYNYAEQTMSHLPQVQSTTVTSHLNSTSVDPYDRHLLPNSGAAATSAAMAAAAATTSSYYGRDRSPLRRAAAMLPTVGEGYGYGPESELSQASAATRNSLYDMARYEREQYVDRARYSAF [RBM4B]
solubility in G1/S (log2) [1]: 0.227
solubility change mitosis (log2) [2]: -0.335

MGDWMTVTDPGLSSESKTISQYTSETKMSPSSLYSQQVLCSSIPLSKNVHSFFSAFCTEDNIEQSISYLDQELTTFGFPSLYEESKGKETKRELNIVAVLNCMNELLVLQRKNLLAQENVETQNLKLGSDMDHLQSCYSKLKEQLETSRREMIGLQERDRQLQCKNRNLHQLLKNEKDEVQKLQNIIASRATQYNHDMKRKEREYNKLKERLHQLVMNKKDKKIAMDILNYVGRADGKRGSWRTGKTEARNEDEMYKILLNDYEYRQKQILMENAELKKVLQQMKKEMISLLSPQKKKPRERVDDSTGTVISDVEEDAGELSRESMWDLSCETVREQLTNSIRKQWRILKSHVEKLDNQVSKVHLEGFNDEDVISRQDHEQETEKLELEIQQCKEMIKTQQQLLQQQLATAYDDDTTSLLRDCYLLEEKERLKEEWSLFKEQKKNFERERRSFTEAAIRLGLERKAFEEERASWLKQQFLNMTTFDHQNSENVKLFSAFSGSSDWDNLIVHSRQPQKKPHSVSNGSPVCMSKLTKSLPASPSTSDFCQTRSCISEHSSINVLNITAEEIKPNQVGGECTNQKWSVASRPGSQEGCYSGCSLSYTNSHVEKDDLP [SSX2IP]
solubility in G1/S (log2) [1]: -0.387
solubility change mitosis (log2) [2]: 0.187

MAP4K5
solubility in G1/S (log2) [1]: 0.172
solubility change mitosis (log2) [2]: -0.0819

MALLRRPTVSSDLENIDTGVNSKVKSHVTIRRTVLEEIGNRVTTRAAQVAKKAQNTKVPVQPTKTTNVNKQLKPTASVKPVQMEKLAPKGPSPTPEDVSMKEENLCQAFSDALLCKIEDIDNEDWENPQLCSDYVKDIYQYLRQLEVLQSINPHFLDGRDINGRMRAILVDWLVQVHSKFRLLQETLYMCVGIMDRFLQVQPVSRKKLQLVGITALLLASKYEEMFSPNIEDFVYITDNAYTSSQIREMETLILKELKFELGRPLPLHFLRRASKAGEVDVEQHTLAKYLMELTLIDYDMVHYHPSKVAAAASCLSQKVLGQGKWNLKQQYYTGYTENEVLEVMQHMAKNVVKVNENLTKFIAIKNKYASSKLLKISMIPQLNSKAVKDLASPLIGRS [CCNB2]
solubility in G1/S (log2) [1]: 0.241
solubility change mitosis (log2) [2]: 0.0941

MDEDGGGEGGGVPEDLSLEEREELLDIRRRKKELIDDIERLKYEIAEVMTEIDNLTSVEESKTTQRNKQIAMGRKKFNMDPKKGIQFLIENDLLQSSPEDVAQFLYKGEGLNKTVIGDYLGERDEFNIKVLQAFVELHEFADLNLVQALRQFLWSFRLPGEAQKIDRMMEAFASRYCLCNPGVFQSTDTCYVLSFAIIMLNTSLHNHNVRDKPTAERFIAMNRGINEGGDLPEELLRNLYESIKNEPFKIPEDDGNDLTHTFFNPDREGWLLKLGGGRVKTWKRRWFILTDNCLYYFEYTTDKEPRGIIPLENLSIREVEDPRKPNCFELYNPSHKGQVIKACKTEADGRVVEGNHVVYRISAPSPEEKEEWMKSIKASISRDPFYDMLATRKRRIANKK [CYTH3]
solubility in G1/S (log2) [1]: 0.26
solubility change mitosis (log2) [2]: -0.11

MSCTIEKALADAKALVERLRDHDDAAESLIEQTTALNKRVEAMKQYQEEIQELNEVARHRPRSTLVMGIQQENRQIRELQQENKELRTSLEEHQSALELIMSKYREQMFRLLMASKKDDPGIIMKLKEQHSKIDMVHRNKSEGFFLDASRHILEAPQHGLERRHLEANQNELQAHVDQITEMAAVMRKAIEIDEQQGCKEQERIFQLEQENKGLREILQITRESFLNLRKDDASESTSLSALVTNSDLSLRKS [FGFR1OP2]
solubility in G1/S (log2) [1]: 0.209
solubility change mitosis (log2) [2]: 0.0581
